Test system: intracellular proteome of ENR+CD and ENR organoids
Test: LC-MS/MS TMT proteomics of ENR+CD versus ENR organoids
Type: cell-based, C57BL/6 mice
Details: for Average logFC: ENR+CD versus ENR organoids, sample pairs in aggregate (n=4, 2 technical replicates from two biological donors); for M1-1 Log2 Median Normalized / M1-2 Log2 Median Normalized / M2-1 Log2 Median Normalized / M2-2 Log2 Median Normalized: protein abundance ratio ENR+CD versus ENR organoids, LC-MS/MS TMT proteomics; for M1-1 Log2 Median Normalized: sample pair M1-1; for M1-2 Log2 Median Normalized: sample pair M1-2; for M2-1 Log2 Median Normalized: sample pair M2-1; for M2-2 Log2 Median Normalized: sample pair M2-2; for change: up = enriched in ENR+CD, down = enriched in ENR, FDR<0.05 and log fold change cut-off

Molecule	Average logFC	M1-1 Log2 Median Normalized	M1-2 Log2 Median Normalized	M2-1 Log2 Median Normalized	M2-2 Log2 Median Normalized	change
Q61391 (protein, UniProt Q61391 1-750, looked up, full-length) MGRSESQMDITDINAPKPKKKQRWTPLEISLSVLVLLLTIIAVTMIALYATYDDGICKSSDCIKSAARLIQNMDASVEPCTDFFKYACGGWLKRNVIPETSSRYSNFDILRDELEVILKDVLQEPKTEDIVAVQKAKTLYRSCINESAIDSRGGQPLLKLLPDIYGWPVASDNWDQTYGTSWTAEKSIAQLNSKYGKKVLINFFVGTDDKNSTQHIIHFDQPRLGLPSRDYYECTGIYKEACTAYVDFMISVARLIRQEQSLPIDENQLSLEMNKVMELEKEIANATTKPEDRNDPMLLYNKMTLAKLQNNFSLEVNGKSFSWSNFTNEIMSTVNINIQNEEEVVVYAPEYLTKLKPILTKYSPRDLQNLMSWRFIMDLVSSLSRNYKESRNAFRKALYGTTSETATWRRCANYVNGNMENAVGRLYVEAAFAGESKHVVEDLIAQIREVFIQTLDDLTWMDAETKKKAEEKALAIKERIGYPDDIISNENKLNNEYLELNYREDEYFENIIQNLKFSQSKQLKKLREKVDKDEWISGAAVVNAFYSSGRNQIVFPAGILQPPFFSAQQSNSLNYGGIGMVIGHEITHGFDDNGRNFNKDGDLVDWWTQQSANNFKDQSQCMVYQYGNFSWDLAGGQHLNGINTLGENIADNGGIGQAYRAYQNYVKKNGEEKLLPGLDLNHKQLFFLNFAQVWCGTYRPEYAVNSIKTDVHSPGNFRIIGTLQNSAEFADAFHCRKNSYMNPERKCRVW	−1.133	−0.83	−1.694	1.3345	−0.675	down
Q62395 (protein, UniProt Q62395 1-81, looked up, full-length) METRALWLMLLVVLVAGSSGIAADYVGLSPSQCMVPANVRVDCGYPSVTSEQCNNRGCCFDSSIPNVPWCFKPLQETECTF	1.185	1.037	1.294	0.4235	1.984	up
Q64176 (protein, UniProt Q64176 1-562, looked up, full-length) MCLSALILVSLAAFTAGAGHPSSPPMVDTVQGKVLGKYISLEGFTQPVAVFLGVPFAKPPLGSLRFAPPQPAEPWSSVKNATSYPPMCFQDPVTGQIVNDLLTNRKEKIPLQFSEDCLYLNIYTPADLTKSDRLPVMVWIHGGGLVLGGASTYDGLVLSTHENVVVVVIQYRLGIWGFFSTGDEHSRGNWGHLDQVAALHWVQDNIAKFGGDPGSVTIFGESAGGESVSVLVLSPLAKNLFQRAISESGVALTAGLVKKNTRPLAEKIAVISGCKNTTSAAMVHCLRQKTEEELLGTTLKLNLFKLDLHGDSRQSHPFVPTVLDGVLLPKMPEEILAEKNFNTVPYIVGINKQEFGWILPTMMNYPPSDVKLDQMTAMSLLKKSSFLLNLPEDAIAVAIEKYLRDKDYTGRNKDQLLELIGDVVFGVPSVIVSRGHRDAGAPTYMYEFQYSPSFSSEMKPDTVVGDHGDEIYSVFGAPILRGGTSEEEINLSKMMMKFWANFARNGNPNGQGLPHWPEYDQKEGYLQIGATTQQAQKLKEKEVAFWTELLAKKQLPTEHTEL	−1.21	−1.21	−1.557	−1.2065	−1.062	down
Q62431 (protein, UniProt Q62431 1-601, looked up, full-length) MKLQAVMETLIQRQQRARQELEARQAPPPPPPEPTGVRARTTMTDEDREPENARMHRTQMAALAAMRAAAAGLGHPSSPGGSEDGPPISGDEDTAREGTLSSPALHGSVLEGAGHAEGDRHLMDVGSDDDDTKSKWEEQELEELGEEEEEEEEEDDFEEEEEEEEGLGPPESASLGTAGLFTRKAPPAQAFRGDGGPRMLSGPERLGPGPAHPSHMASQMPPPDHGDWTFEEQFKQLYELDADPKRKEFLDDLFSFMQKRGTPVNRIPIMAKQVLDLFMLYVLVTEKGGLVEVINKKLWREITKGLNLPTSITSAAFTLRTQYMKYLYPYECERRGLSSPNELQAAIDSNRREGRRQSFGGSLFAYSPSGAHSMLPSPKLPVTPLGLAASTNGSSITPAPKIKKEEDSAIPITVPGRLPVSLAGHPVVAAQAAAVQAAAAQAAVAAQAAALEQLREKLESTEPPEKKMALVADEQQRLMQRAVQQSFLAMTAQLPMNIRINSQASESRQDSAVSLTSANGSNSISMSVEMNGIVYTGVLFAQPPPPTAPSAPGKGGVSSIGTNTTTGSRTGASGSTVSGGQVGLPGVSTPTMSSTSNNSLP	1.251	1.672	1.343	1.2465	0.741	up
Q64669 (protein, UniProt Q64669 1-274, looked up, full-length) MAARRALIVLAHSEKTSFNYAMKEAAVEALKKRGWEVLESDLYAMNFNPIISRNDITGELKDSKNFQYPSESSLAYKEGRLSPDIVAEHKKLEAADLVIFQFPLQWFGVPAILKGWFERVLVAGFAYTYAAMYDNGPFQNKKTLLSITTGGSGSMYSLQGVHGDMNVILWPIQSGILRFCGFQVLEPQLVYSIGHTPPDARMQILEGWKKRLETVWEETPLYFAPSSLFDLNFQAGFLMKKEVQEEQKKNKFGLSVGHHLGKSIPADNQIKARK	−1.573	−1.603	−2.001	−1.5715	−0.844	down
Q64338 (protein, UniProt Q64338 1-706, looked up, full-length) MESPTKEIEEFESNSLKHLQPEQIEKIWLRLRGLRKYKKTSQRLRSLVKQLERGEASVVDLKKNLEYAATVLESVYIDETRRLLDTEDELSDIQSDAVPSEVRDWLASTFTRQMGMMLRRSDEKPRFKSIVHAVQAGIFVERMYRRTSNMVGLSYPPAVIDALKDVDTWSFDVFSLNEASGDHALKFIFYELLTRYDLISRFKIPISALVSFVEALEVGYSKHKNPYHNLMHAADVTQTVHYLLYKTGVANWLTELEIFAIIFSAAIHDYEHTGTTNNFHIQTRSDPAILYNDRSVLENHHLSAAYRLLQEDEEMNILVNLSKDDWREFRTLVIEMVMATDMSCHFQQIKAMKTALQQPEAIEKPKALSLMLHTADISHPAKAWDLHHRWTMSLLEEFFRQGDREAELGLPFSPLCDRKSTMVAQSQVGFIDFIVEPTFTVLTDMTEKIVSPLIDESSQTGGTGQRRSSLNSINSSDAKRSGVKSSGSDGSAPINNSVIPVDYKSFKATWTEVVQINRERWRAKVPKEEKAKKEAEEKARLAAEEKQKEMEAKSQAEQGTTSKGEKKTSGEAKSQVNGTRKGDNPRGKNSKGEKAGEKQQNGDLKDGKNKADKKDHSNTGNESKKTDGTKKRSHGSPAPSTSSTSRITLPVIKPPLRHFKRPAYASSSYAPSVPKKTDDHPVRYKMLDQRIKMKKIQNISHHWNKK	1.157	0.73	0.722	1.3705	1.805	up
